For 1 substance, Kd results are on record in patent US20050118611.

The term Kd denotes the free concentration of one partner at which half of the binding sites on the other are occupied at equilibrium, for simple one-to-one binding.

The target of data set [1] is NF-κB p50 homodimer (UniProt P19838). Particulars: SELDI also detects p50 on IgκB surface; lost on stringent washing unlike XBY-6.
The target in data set [2] is NF-κB p65 (RelA) homodimer (UniProt Q04206). Conditions: 1:1 stoichiometry; method not stated; cited from earlier work.
Sequence of NF-κB p65 (RelA) homodimer (Q04206 whole entry): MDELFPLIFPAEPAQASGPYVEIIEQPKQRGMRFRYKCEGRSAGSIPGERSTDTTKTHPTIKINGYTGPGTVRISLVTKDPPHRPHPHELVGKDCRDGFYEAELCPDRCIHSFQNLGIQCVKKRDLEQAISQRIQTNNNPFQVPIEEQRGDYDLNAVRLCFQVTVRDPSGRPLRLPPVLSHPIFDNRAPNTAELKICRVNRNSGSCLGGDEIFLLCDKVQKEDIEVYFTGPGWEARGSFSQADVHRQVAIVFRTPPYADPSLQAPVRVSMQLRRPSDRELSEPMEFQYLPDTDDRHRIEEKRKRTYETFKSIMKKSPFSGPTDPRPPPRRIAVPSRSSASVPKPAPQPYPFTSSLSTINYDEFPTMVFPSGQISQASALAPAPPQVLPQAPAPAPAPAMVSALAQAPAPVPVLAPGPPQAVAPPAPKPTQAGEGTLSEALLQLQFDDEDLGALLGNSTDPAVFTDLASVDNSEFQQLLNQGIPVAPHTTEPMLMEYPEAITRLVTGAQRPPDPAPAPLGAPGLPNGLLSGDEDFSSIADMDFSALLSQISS

Sequence of NF-κB p50 homodimer (P19838 1-433): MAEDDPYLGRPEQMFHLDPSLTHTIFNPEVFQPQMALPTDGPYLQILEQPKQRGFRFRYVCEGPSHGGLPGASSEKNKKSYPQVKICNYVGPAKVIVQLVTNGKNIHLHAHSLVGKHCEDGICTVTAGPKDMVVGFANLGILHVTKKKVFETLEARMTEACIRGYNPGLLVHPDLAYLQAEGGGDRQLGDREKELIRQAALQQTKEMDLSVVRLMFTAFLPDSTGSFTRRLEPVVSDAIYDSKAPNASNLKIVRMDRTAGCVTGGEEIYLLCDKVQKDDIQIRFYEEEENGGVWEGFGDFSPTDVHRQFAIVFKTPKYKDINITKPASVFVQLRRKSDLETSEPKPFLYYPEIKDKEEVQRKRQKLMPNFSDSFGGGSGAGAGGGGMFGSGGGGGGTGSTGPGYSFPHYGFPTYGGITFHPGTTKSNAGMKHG

For the substance IgκB 22-mer duplex, the Kd in data set [1] and in data set [2] was 4 nM in each case.
